Data reported in patent US20230407373A1 (priority 2020, published 2023).

Tested on: SARS-CoV-2 gRNA and sgRNAs
Format: binding
Conditions: for target (unweighted spectral count in RNP capture): Probe II capture, LC-MS/MS LFQ; for background (unweighted spectral count in control): no-probe control pull-down, used as background for Probe II

B1: CAPRIN1 (protein, UniProt Q14444 2-709, looked up)
Caprin-1: PSATSHSGSGSKSSGPPPPSGSSGSEAAAGAGAAAPASQHPATGTGAVQTEAMKQILGVIDKKLRNLEKKKGKLDDYQERMNKGERLNQDQLDAVSKYQEVTNNLEFAKELQRSFMALSQDIQKTIKKTARREQLMREEAEQKRLKTVLELQYVLDKLGDDEVRTDLKQGLNGVPILSEEELSLLDEFYKLVDPERDMSLRLNEQYEHASIHLWDLLEGKEKPVCGTTYKVLKEIVERVFQSNYFDSTHNHQNGLCEEEEAASAPAVEDQVPEAEPEPAEEYTEQSEVESTEYVNRQFMAETQFTSGEKEQVDEWTVETVEVVNSLQQQPQAASPSVPEPHSLTPVAQADPLVRRQRVQDLMAQMQGPYNFIQDSMLDFENQTLDPAIVSAQPMNPTQNMDMPQLVCPPVHSESRLAQPNQVPVQPEATQVPLVSSTSEGYTASQPLYQPSHATEQRPQKEPIDQIQATISLNTDQTTASSSLPAASQPQVFQAGTSKPLHSSGINVNAAPFQSMQTVFNMNAPVPPVNEPETLKQQNQYQASYNQSFSSQPHQVEQTELQQEQLQTVVGTYHGSPDQSHQVTGNHQQPPQQNTGFPRSNQPYYNSRGVSRGGSRGARGLMNGYRGPANGFRGGYDGYRPSFSNTPNSGYTQSQFSAPRDYSGYQRDGYQQNFKRGSGQSGPRGAPRGRGGPPRPNRGMPQMNTQQVN
target (unweighted spectral count in RNP capture) ([…]): 10 | background (unweighted spectral count in control): 1

B2: CRIP2 (protein, UniProt P52943 1-208, looked up)
Cysteine-rich protein 2: MASKCPKCDKTVYFAEKVSSLGKDWHKFCLKCERCSKTLTPGGHAEHDGKPFCHKPCYATLFGPKGVNIGGAGSYIYEKPLAEGPQVTGPIEVPAARAEERKASGPPKGPSRASSVTTFTGEPNTCPRCSKKVYFAEKVTSLGKDWHRPCLRCERCGKTLTPGGHAEHDGQPYCHKPCYGILFGPKGVNTGAVGSYIYDRDPEGKVQP
target (unweighted spectral count of the protein in the RNP capture experiment) ([…], LC-MS/MS label-free quantification, probe pool not given): 6 | back-ground (unweighted spectral count of the protein in the control experiment) (protein background of the control (e.g. no-probe) experiment, […]): 1

B3: BICC1 (protein, UniProt Q9H694 1-974, looked up)
Protein bicaudal C homolog 1: MAAQGEPGYLAAQSDPGSNSERSTDSPVPGSEDDLVAGATLHSPEWSEERFRVDRKKLEAMLQAAAEGKGRSGEDFFQKIMEETNTQIAWPSKLKIGAKSKKDPHIKVSGKKEDVKEAKEMIMSVLDTKSNRVTLKMDVSHTEHSHVIGKGGNNIKKVMEETGCHIHFPDSNRNNQAEKSNQVSIAGQPAGVESARVRIRELLPLVLMFELPIAGILQPVPDPNSPSIQHISQTYNISVSFKQRSRMYGATVIVRGSQNNTSAVKEGTAMLLEHLAGSLASAIPVSTQLDIAAQHHLFMMGRNGSNIKHIMQRTGAQIHFPDPSNPQKKSTVYLQGTIESVCLARQYLMGCLPLVLMFDMKEEIEVDPQFIAQLMEQLDVFISIKPKPKQPSKSVIVKSVERNALNMYEARKCLLGLESSGVTIATSPSPASCPAGLACPSLDILASAGLGLTGLGLLGPTTLSLNTSTTPNSLLNALNSSVSPLQSPSSGTPSPTLWAPPLANTSSATGFSAIPHLMIPSTAQATLTNILLSGVPTYGHTAPSPPPGLTPVDVHINSMQTEGKKISAALNGHAQSPDIKYGAISTSSLGEKVLSANHGDPSIQTSGSEQTSPKSSPTEGCNDAFVEVGMPRSPSHSGNAGDLKQMMCPSKVSCAKRQTVELLQGTKNSHLHSTDRLLSDPELSATESPLADKKAPGSERAAERAAAAQQNSERAHLAPRSSYVNMQAFDYEQKKLLATKAMLKKPVVTEVRTPTNTWSGLGFSKSMPAETIKELRRANHVSYKPTMTTTYEGSSMSLSRSNSREHLGGGSESDNWRDRNGIGPGSHSEFAASIGSPKRKQNKSTEHYLSSSNYMDCISSLTGSNGCNLNSSFKGSDLPELFSKLGLGKYTDVFQQQEIDLQTFLTLTDQDLKELGITTFGARRKMLLAISELNKNRRKLFESPNARTSFLEGGASGRLPRQYHSDIASVSGRW
target (unweighted spectral count in RNP capture) ([…]): 11 | background (unweighted spectral count in control): 1

B4: FAM120C (protein, UniProt Q9NX05 1-1096, looked up)
Constitutive coactivator of …: MGVQGFQEFLEKRCPGAVVPVDLLKLARTVSRQQQQQHLHRQLPPTAALAPGAPRAARGSVPLQPPLPPAALGAYSGGAGPTRHHHPAHHFHHHGQAQPGLHPPLPPPPPPQLPGARVLVDAGSALPRLYGGYQTDWVCGGQWNAMLGYLSALCQACAYPGGDGLELVVMFPGGLGKDRLAEWGRRCQAERQTAQLIVGHVGNKGTPPPRAWFLPPACLSHCVRLALIRFRVKVFQSLEDHHLEVVAFFRENGFHGLLAHDSEYALYNIPSYYSSHALKLSWNGKNLTTNQFLMQEVAKQLGLKRMNFPIFAALLGNHILPDEDLAAFHWSLLGPEHPLASLKVRAHQLVLPPCDVVIKAVSEYVSSIKDPSNLDVVGKDVFKQSQSRTEDKIERFKKAVEYYSVTTKLSSLPVGPSFLGFRNNRLGNPPLPRNQVGTISAGKPMFSHQVPQKVKYPPPFPVGPNSSLLFSSHALGESHAFSEDPMLQNSPFANWAVSYDSSASQFPNYLPSKASPPLGPDSSHSSSSDGDEPNGASSDHITEAFHHQPEWGNPNRDRGSWAQPVDTGVSEASLGDGEPHIPSLLSMSTRNHMDITIPPLPPVAPEVLRVAEHRHRRGLMYPYIYHVLTKGEIKIPVCIEDECNMELPPAALLFRSARQYVYGVLFSLAETQRKMERLAMRRRLPVEVPSVILKEWSAYKGKSPQTPELVSALTFREWTCPNLKKLWLGKAVEDKNRRMRAFLACMKSDTPSMLNPANVPTHLLLMCCVLRYMVQWPGGRILHRHELDTFLAQAVSTQLYEPDRLQELKIEKLDARGIQLAALFMSGVDTALFANDACGQPVPWEHCCPWIYFDGKLFQSKLIKAGRERVSLVELCDGQADLATKVEKMRQSILEGVNMNHPPPSALLPSPTFVPPMVPSLYPVSLYSRAMGSMPLPPQGRSRGFAGLHPIPPQGGKLEIAGMVVGQWAGSRSSRGRGSFGMQVVSVGGPGKGHGKEQTGRGSKGHKKGNKQGSSDGVSKSLELHQGRSRSQVNGNSGALIKEEKSDHRLPAPSQCALSRDSNECNNGNRYLPMNNREKNHLQEQKLETVAQRKED
target (unweighted spectral count in RNP capture) ([…]): 14 | background (unweighted spectral count in control): 1

B5: NUFIP2 (protein, UniProt Q7Z417 1-695, looked up)
FMR1-interacting protein …: MEEKPGQPQPQHHHSHHHPHHHPQQQQQQPHHHHHYYFYNHSHNHHHHHHHQQPHQYLQHGAEGSPKAQPKPLKHEQKHTLQQHQETPKKKTGYGELNGNAGEREISLKNLSSDEATNPISRVLNGNQQVVDTSLKQTVKANTFGKAGIKTKNFIQKNSMDKKNGKSYENKSGENQSVDKSDTIPIPNGVVTNNSGYITNGYMGKGADNDGSGSESGYTTPKKRKARRNSAKGCENLNIVQDKIMQQETSVPTLKQGLETFKPDYSEQKGNRVDGSKPIWKYETGPGGTSRGKPAVGDMLRKSSDSKPGVSSKKFDDRPKGKHASAVASKEDSWTLFKPPPVFPVDNSSAKIVPKISYASKVKENLNKTIQNSSVSPTSSSSSSSSTGETQTQSSSRLSQVPMSALKSVTSANFSNGPVLAGTDGNVYPPGGQPLLTTAANTLTPISSGTDSVLQDMSLTSAAVEQIKTSLFIYPSNMQTMLLSTAQVDLPSQTDQQNLGDIFQNQWGLSFINEPSAGPETVTGKSSEHKVMEVTFQGEYPATLVSQGAEIIPSGTEHPVFPKAYELEKRTSPQVLGSILKSGTTSESGALSLEPSHIGDLQKADTSSQGALVFLSKDYEIESQNPLASPTNTLLGSAKEQRYQRGLERNDSWGSFDLRAAIVYHTKEMESIWNLQKQDPKRIITYNEAMDSPDQ
target (unweighted spectral count in RNP capture) ([…]): 10 | background (unweighted spectral count in control): 1
